From the DeepSol protein solubility set come the findings set out here.

This data set in a line: soluble on expression in E. coli; label from the status in PepcDB or PDB records.
Turning to “MEAAHFFEGTEKLLEVWFSRQQPDANQGSGDLRTIPRSEWDILLKDVQCSIISVTKTDKQEAYVLSEASMFVSKRRFILKTCGTTLLLKALVPLLKLARDYSGFDSIQSFFYSRKNFMKPSHQGYPHRNFQEEIEFLNAIFPNGAAYCMGRMNSDCWYLYTLDFPESRVISQPDQTLEILMSELDPAVMDQFYMKDGVTAKDVTRESGIRDLIPGSVIDATMFNPCGYSMNGMKSDGTYWTIHITPEPEFSYVSFETNLSQTSYDDLIRKVVEVFKPGKFVTTLFVNQSSKCRTVLASPQKIEGFKRLDCQSAMFNDYNFVFTSFAKKQQQQQSHICRSQMVTSQQTSSVVRQT”, the “soluble on expression in E. coli” value is “soluble”.

For the sequence “MEADGLGCAVCVLTGASRGFGRALAPQLARLLSPGSVMLVSARSESMLRQLKEELGAQQPDLKVVLAAADLGTEAGVQRLLSAVRELPRPEGLQRLLLINNAATLGDVSKGFLNVNDLAEVNNYWALNLTSMLCLTSGTLNAFQDSPGLSKTVVNISSLCALQPYKGWGLYCAGKAARDMLYQVLAAEEPSVRVLSYAPGPLDNDMQQLARETSKDPELRSKLQKLKSDGALVDCGTSAQKLLGLLQKDTFQSGAHVDFYD”, the “soluble on expression in E. coli” value is “soluble”.

On to “MEAEKKKLSIPPKGIRAIIEAIRLGEIIKPSQYAKREAFKKHDVEEAWLNRVLTMIFYDIMKKQGLIDKVIKEIVGVTPLILDPWLRAALRVAVDIALFHDPSSQTIKNLRWKASDFISSRTHPYVGMYFWDLLDKIFEYKPNPKNELEELEWKYLAPSWLIERVKGILGDETEDFFRSVNKRHEWISIRVNTLKANVEEVIGELEEDGVEVVRSERVPTILKIKGPYNFDTSSAFNEGKIIVQEEASAVASIVLDPKPGETVVDLAAAPGGKTTHLAELMKNKGKIYAFDVDKMRMKRLKDFVKRMGIKIVKPLVKDARKAPEIIGEEVADKVLLDAPCTSSGTIGKNPELRWRLREDKINEMSQLQRELLESAARLVKPGGRLLYTTCSIFKEENEKNIRWFLNVHPEFKLVPLKSPYDPGFLEGTMRAWPHRHSTIGFFYALLEKSK”, for which the “soluble on expression in E. coli” value is “soluble”.

On to “MEAKQTVFVNEFTNGILDPHGNMLGPVQDGGYIVANTTPGCWGPMITPCIRGGHEVTKPVFVEGAEVGDAIAIKIKSIRVTSIATSSGNDKPMEGRFVGDPFVAVKCPQCGTMYPETKIEGIGPEAIRCANCGADVTPFVFTNGYTMTFDPNRQIGVTVHKEAAEHIARQGRYYMATPDNSVQNPIVTFAPHDLVGTVARLRPFLGQLGTTPARPLPDSHNAGDFGQFLINAPHEYGITKEQLEDRTDGHMDINRVREGAVLICPVKVRGGGVYLGDMHAMQGDGEIAGHTTDVSGIVTLQVKVIKGLTIDGPILLPVAEDLPYLAKPLTKKEKEIALDLAQSWGVDKLEESLPISFVGTGANLNEATENGLQRAAKTLGISVPEVMNRATITGAIEIGRHPGVITVTFLCPIRYLDKISLTSLVYDQYRSVLE”, for which the “soluble on expression in E. coli” value is reported as “not soluble”.

Take “MECETDEQKQGSDENMSECETSSVCSSSDTGLFTNDEGRQGDDEQSDWFYEGECVPGFTVPNLLPKWAPDHCSEVERMDSGLDKFSDSTFLLPSRPAQRGYHTRLNRLPGAAARCLRKGRRRLVGKETSINTLGTERISHIISDPRQKDFWLPSAGKRERNQFNPLSPLYSLDVLADASHRRCSPAHCSARQANVHWGPPCSRVIKRKRKPVATASLSSPSAVHMDAVEPTTPASQAPKSPSSEWLVRTSAAEKATDATTATFFKMPQEKSPGYSLEHHHHHH”: the “soluble on expression in E. coli” value was “soluble”.

For “MECSQEDVVNDFIALEKIGSEVDINLDGVIKSKECSNTNEADIISNLITAIEESLSCTSVCTAVSLETVAQKLDAYADPSLNTQMSFSTASDLSSMEQDYVKASDDPFDLNHQPSPLQVWRDQGKITGFQMMCDDQKVTVVDSLECLAQSEQHLEPVYFDPRVNLAIPCPPDDFEILEDYGSTSNASVNSDDASTAELGPTSEEFEEWVRKIEQNY”, the “soluble on expression in E. coli” value is given as “not soluble”.

As to “MEDNNELIKGRGAQMQAKSRFHAQEIVQEHMEGIDEITDINTPTQYLYENAKQIVNKVDSPDIGLAYSMNPYQGCEHGCIYCYARNSHEYWGYNAGIDFEKKIIVKRNAASVLAKTFEKPNWEVLPIMFSGNTDCYQPIERKLQITRNMLQVIATYKHPVGMITKNHLITRDIDILKELAAQQLVHVSISITSARDEIRQKLEPRASAISQRLKTVEALAKENIPVNVMIAPIIPGINHHEIPQIMKQIADAGASSAAYTIVRLNGSIGVVFEDWIRKAYPDRADKVLNQIKECHGGTLNDSRFSTRMRGQGNIAASIHDLFYVSRKKYLSGREYPPLRTDLFVRSNKGQLGLF”, the “soluble on expression in E. coli” value is listed as “not soluble”.

Regarding “MEDQDLLEIGILNSGHRQRILQAIQLLPKMRPIGHDGYHPTSVAEWLDSIELGDYTKAFLINGYTSMDLLKKIWEVELINVLKINLIGHRKRILASLGDRLHDDPPQKPPRSITLREPSGNHTPPQLSPSLSQSTYTTGGSLDVPHIIMQGDARRRRNENYFDDIPRSKLERQMAQSSVCEIWTNQNAGFPFSAIHQVHNTGDWGEPSITLRPPNEATASTPVQYWQHHPEKLIFQSCDYKAFYLGSMLIKELRGTESTQDACAKMRANCQKSTEQMKKVPTIILSVSYKGVKFIDATNKNIIAEHEIRNISCAAQDPEDLSTFAYITKDLKSNHHYCHVFTAFDVNLAYEIILTLGQAFEVAYQLALQARKGGHSSTLPESFENKPSKPIPKPRVSIRKSVQIDPSEQKTLANLPWIVEPGQEAKRGINTKYETTIF”, the “soluble on expression in E. coli” value was “soluble”.

For the sequence “MEDRIQKAVELFKSGYNCSQSVVAAFADMYGFTQEQAVRMSASFGGGIGRMRETCGAACGLFLIAGLETGATEATDREGKAANYAVVQELAAEFKKRNGSLICGELLGLKKKEPISTVPEERNTQYYSKRPCAKMVEEAARIWVEYLEKHPK”, the “soluble on expression in E. coli” value is “not soluble”.

Regarding “MEEGIKMGTKLTSLFKEGEKYQINTKYKELPIKTNLKLLWIDENMKLLGFSIGACVFKGAFTPGTEVYIKINGKYAYGKVFSCSNELVIEFKEIRKEPEFIRRRTVRVEPDPANPVVVELKVDSYSIKTKAKDISETGVGVILEKDKPESAEVIDIIQKNPNSWFDLYVHLPKHGTAHAKGRVRNLSIEEEGIYIRIGFEAEYSKEDREKVRRYVFERQQEIIKSLKML”, the “soluble on expression in E. coli” value was “not soluble”.

Take “MEFGEKLIHLRKKNRLTQKQLAAKIGTTASTISKYENDNHRPPIFILAKLAEILGTTTDFLLDDVAGLREKNSVNAFPLIGNPELEKWYLELPYTYSEEELLMLKRIADAIENKK”: the “soluble on expression in E. coli” value is listed as “not soluble”.

In the case of “MEFINNITIRARVAFYLAVAQKAFEGLSENDQGYLQADEALKQCWNWLKGKNISGDELCEYLENERDTGLMVYSSFVQGDPVKEPIWITIITALMYTIWQAYQIENEKYLPESIEQVDEGTIDILIEYAKKCANYDEHWIKLLENYLLEKYRTTNMNEVGIAILKDEIMGIR”, the “soluble on expression in E. coli” value is “soluble”.

Turning to “MEFMSAPANAVAADDATAIALKYNQDATKSERVAAARPGLPPEEQHCANCQFMQADAAGATDEWKGCQLFPGKLINVNGWSASWTLKAG”, the “soluble on expression in E. coli” value is “soluble”.

For “MEFVLASASPARRRLLQGIGINPIVHVSHFDESQIHHDDPAQLVEALAAAKAKTVAQHRQDALILGCDSVLHVRGEILGKPASPTEAIARWQTMRGHYGLLYTGHALVDQTQNQLLVRHGVTKVYFAAIDDDTIAAYVRSGEPLQCAGCFALEGKGGLFIEKIEGCHSNVIGLSLPLLREMLAHLGYTVQTLWP”, the “soluble on expression in E. coli” value is on record as “not soluble”.

As to “MEGLGRSCLWLRRELSPPRPRLLLLDCRSRELYESARIGGALSVALPALLLRRLRRGSLSVRALLPGPPLQPPPPAPVLLYDQGGGRRRRGEAEAEAEEWEAESVLGTLLQKLREEGYLAYYLQGGFSRFQAECPHLCETSLAGRAGSSMAPVPGPVPVVGLGSLCLGSDCSDAESEADRDSMSCGLDSEGATPPPVGLRASFPVQILPNLYLGSARDSANLESLAKLGIRYILNVTPNLPNFFEKNGDFHYKQIPISDHWSQNLSRFFPEAIEFIDEALSQNCGVLVHCLAGVSRSVTVTVAYLMQKLHLSLNDAYDLVKRKKSNISPNFNFMGQLLDFERSLRLEERHSQEQGSGGQASAASNPPSFFTTPTSDGAFELAPT”, the “soluble on expression in E. coli” value is recorded as “soluble”.
